The labels stand for the following.
T1: EsCas13d, nuclease-dead (Eubacterium siraeum, UniProt B0MS50, R295A;H300A;R849A;H854A)
T1 sequence: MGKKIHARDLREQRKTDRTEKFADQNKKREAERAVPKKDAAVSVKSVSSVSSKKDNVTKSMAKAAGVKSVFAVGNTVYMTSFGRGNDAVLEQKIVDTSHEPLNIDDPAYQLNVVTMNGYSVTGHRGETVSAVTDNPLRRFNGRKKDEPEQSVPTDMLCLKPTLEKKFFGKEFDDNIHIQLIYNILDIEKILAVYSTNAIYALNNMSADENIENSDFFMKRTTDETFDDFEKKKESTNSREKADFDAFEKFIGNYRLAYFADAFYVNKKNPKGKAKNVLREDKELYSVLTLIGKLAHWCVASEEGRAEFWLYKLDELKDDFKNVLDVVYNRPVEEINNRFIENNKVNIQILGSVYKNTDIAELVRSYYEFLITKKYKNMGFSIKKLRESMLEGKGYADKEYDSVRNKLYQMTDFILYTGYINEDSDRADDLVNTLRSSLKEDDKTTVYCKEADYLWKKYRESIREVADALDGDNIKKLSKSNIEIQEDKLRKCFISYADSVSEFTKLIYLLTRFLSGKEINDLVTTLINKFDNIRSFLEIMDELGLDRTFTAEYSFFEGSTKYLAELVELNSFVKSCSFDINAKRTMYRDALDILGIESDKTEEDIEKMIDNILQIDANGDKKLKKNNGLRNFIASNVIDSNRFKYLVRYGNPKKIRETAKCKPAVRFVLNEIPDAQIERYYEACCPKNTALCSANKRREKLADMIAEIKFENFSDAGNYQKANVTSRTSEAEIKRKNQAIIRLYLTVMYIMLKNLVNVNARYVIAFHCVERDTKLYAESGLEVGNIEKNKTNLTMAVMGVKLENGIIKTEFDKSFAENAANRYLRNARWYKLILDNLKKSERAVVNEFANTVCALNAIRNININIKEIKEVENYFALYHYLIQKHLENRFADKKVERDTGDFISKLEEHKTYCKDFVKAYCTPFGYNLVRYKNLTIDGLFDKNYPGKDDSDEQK

B1: target 1 MT 5'PFS GCU 3'PFS GCU (mixed)
RNA 1: CACCCGUGCAAAAAUGCAGGGGUCUAAAACUGAGCGGAUAACCUCUCUAUGG
RNA 2: GGGAAUGGAUCCACAUCUACGAAUUCGCUCCAUAGAGAGGUUAUCCGCUCAGCUAGAUCGGAAGAGCACACGU
B2: target 1 MT 5'PFS GGG 3'PFS AAG (mixed)
RNA 1: CACCCGUGCAAAAAUGCAGGGGUCUAAAACUGAGCGGAUAACCUCUCUAUGG
RNA 2: GGGAAUGGAUCCACAUCUACGAAUUCGGGCCAUAGAGAGGUUAUCCGCUCAAAGAGAUCGGAAGAGCACACGU
B3: target 1 MT 5'PFS GUA 3'PFS CGA (mixed)
RNA 1: CACCCGUGCAAAAAUGCAGGGGUCUAAAACUGAGCGGAUAACCUCUCUAUGG
RNA 2: GGGAAUGGAUCCACAUCUACGAAUUCGUACCAUAGAGAGGUUAUCCGCUCACGAAGAUCGGAAGAGCACACGU
B4: target 1 MT 5'PFS CUC 3'PFS UCA (mixed)
RNA 1: CACCCGUGCAAAAAUGCAGGGGUCUAAAACUGAGCGGAUAACCUCUCUAUGG
RNA 2: GGGAAUGGAUCCACAUCUACGAAUUCCUCCCAUAGAGAGGUUAUCCGCUCAUCAAGAUCGGAAGAGCACACGU
B5: target 1 MT 5'PFS ACA 3'PFS UGA (mixed)
RNA 1: CACCCGUGCAAAAAUGCAGGGGUCUAAAACUGAGCGGAUAACCUCUCUAUGG
RNA 2: GGGAAUGGAUCCACAUCUACGAAUUCACACCAUAGAGAGGUUAUCCGCUCAUGAAGAUCGGAAGAGCACACGU
B6: target 1 MT 5'PFS CUC 3'PFS UCG (mixed)
RNA 1: CACCCGUGCAAAAAUGCAGGGGUCUAAAACUGAGCGGAUAACCUCUCUAUGG
RNA 2: GGGAAUGGAUCCACAUCUACGAAUUCCUCCCAUAGAGAGGUUAUCCGCUCAUCGAGAUCGGAAGAGCACACGU
B7: target 1 MT 5'PFS GAA 3'PFS AUC (mixed)
RNA 1: CACCCGUGCAAAAAUGCAGGGGUCUAAAACUGAGCGGAUAACCUCUCUAUGG
RNA 2: GGGAAUGGAUCCACAUCUACGAAUUCGAACCAUAGAGAGGUUAUCCGCUCAAUCAGAUCGGAAGAGCACACGU
B8: target 1 MT 5'PFS GGC 3'PFS UAC (mixed)
RNA 1: CACCCGUGCAAAAAUGCAGGGGUCUAAAACUGAGCGGAUAACCUCUCUAUGG
RNA 2: GGGAAUGGAUCCACAUCUACGAAUUCGGCCCAUAGAGAGGUUAUCCGCUCAUACAGAUCGGAAGAGCACACGU
B9: target 1 MT 5'PFS ACA 3'PFS UGU (mixed)
RNA 1: CACCCGUGCAAAAAUGCAGGGGUCUAAAACUGAGCGGAUAACCUCUCUAUGG
RNA 2: GGGAAUGGAUCCACAUCUACGAAUUCACACCAUAGAGAGGUUAUCCGCUCAUGUAGAUCGGAAGAGCACACGU
B10: target 1 MT 5'PFS GAC 3'PFS AGU (mixed)
RNA 1: CACCCGUGCAAAAAUGCAGGGGUCUAAAACUGAGCGGAUAACCUCUCUAUGG
RNA 2: GGGAAUGGAUCCACAUCUACGAAUUCGACCCAUAGAGAGGUUAUCCGCUCAAGUAGAUCGGAAGAGCACACGU
B11: target 1 MT 5'PFS GUA 3'PFS CGC (mixed)
RNA 1: CACCCGUGCAAAAAUGCAGGGGUCUAAAACUGAGCGGAUAACCUCUCUAUGG
RNA 2: GGGAAUGGAUCCACAUCUACGAAUUCGUACCAUAGAGAGGUUAUCCGCUCACGCAGAUCGGAAGAGCACACGU
B12: target 1 MT 5'PFS GGC 3'PFS UAG (mixed)
RNA 1: CACCCGUGCAAAAAUGCAGGGGUCUAAAACUGAGCGGAUAACCUCUCUAUGG
RNA 2: GGGAAUGGAUCCACAUCUACGAAUUCGGCCCAUAGAGAGGUUAUCCGCUCAUAGAGAUCGGAAGAGCACACGU
B13: target 1 MT 5'PFS CUU 3'PFS ACU (mixed)
RNA 1: CACCCGUGCAAAAAUGCAGGGGUCUAAAACUGAGCGGAUAACCUCUCUAUGG
RNA 2: GGGAAUGGAUCCACAUCUACGAAUUCCUUCCAUAGAGAGGUUAUCCGCUCAACUAGAUCGGAAGAGCACACGU
B14: target 1 MT 5'PFS CUU 3'PFS ACA (mixed)
RNA 1: CACCCGUGCAAAAAUGCAGGGGUCUAAAACUGAGCGGAUAACCUCUCUAUGG
RNA 2: GGGAAUGGAUCCACAUCUACGAAUUCCUUCCAUAGAGAGGUUAUCCGCUCAACAAGAUCGGAAGAGCACACGU
B15: target 1 MT 5'PFS GGC 3'PFS UAU (mixed)
RNA 1: CACCCGUGCAAAAAUGCAGGGGUCUAAAACUGAGCGGAUAACCUCUCUAUGG
RNA 2: GGGAAUGGAUCCACAUCUACGAAUUCGGCCCAUAGAGAGGUUAUCCGCUCAUAUAGAUCGGAAGAGCACACGU
B16: target 1 MT 5'PFS CCU 3'PFS UAU (mixed)
RNA 1: CACCCGUGCAAAAAUGCAGGGGUCUAAAACUGAGCGGAUAACCUCUCUAUGG
RNA 2: GGGAAUGGAUCCACAUCUACGAAUUCCCUCCAUAGAGAGGUUAUCCGCUCAUAUAGAUCGGAAGAGCACACGU
B17: target 1 complement block 6-12 (mixed)
RNA 1: CACCCGUGCAAAAAUGCAGGGGUCUAAAACUGAGCGGAUAACCUCUCUAUGG
RNA 2: GGGAAUGGAUCCACAUCUACGAAUUCGUACCAUAGAGAGCAAUAGGGCUCACCGAGAUCGGAAGAGCACACGU
B18: target 1 MT 5'PFS GAA 3'PFS AUU (mixed)
RNA 1: CACCCGUGCAAAAAUGCAGGGGUCUAAAACUGAGCGGAUAACCUCUCUAUGG
RNA 2: GGGAAUGGAUCCACAUCUACGAAUUCGAACCAUAGAGAGGUUAUCCGCUCAAUUAGAUCGGAAGAGCACACGU
B19: target 1 MT 5'PFS GGG 3'PFS AAC (mixed)
RNA 1: CACCCGUGCAAAAAUGCAGGGGUCUAAAACUGAGCGGAUAACCUCUCUAUGG
RNA 2: GGGAAUGGAUCCACAUCUACGAAUUCGGGCCAUAGAGAGGUUAUCCGCUCAAACAGAUCGGAAGAGCACACGU
B20: target 1 MT 5'PFS GAC 3'PFS AGC (mixed)
RNA 1: CACCCGUGCAAAAAUGCAGGGGUCUAAAACUGAGCGGAUAACCUCUCUAUGG
RNA 2: GGGAAUGGAUCCACAUCUACGAAUUCGACCCAUAGAGAGGUUAUCCGCUCAAGCAGAUCGGAAGAGCACACGU
B21: target 1 MT 5'PFS GGC 3'PFS UAA (mixed)
RNA 1: CACCCGUGCAAAAAUGCAGGGGUCUAAAACUGAGCGGAUAACCUCUCUAUGG
RNA 2: GGGAAUGGAUCCACAUCUACGAAUUCGGCCCAUAGAGAGGUUAUCCGCUCAUAAAGAUCGGAAGAGCACACGU
B22: target 1 C6G,G13A (mixed)
RNA 1: CACCCGUGCAAAAAUGCAGGGGUCUAAAACUGAGCGGAUAACCUCUCUAUGG
RNA 2: GGGAAUGGAUCCACAUCUACGAAUUCGUACCAUAGAGAAGUUAUCGGCUCACCGAGAUCGGAAGAGCACACGU
B23: target 1 MT 5'PFS GUA 3'PFS CGG (mixed)
RNA 1: CACCCGUGCAAAAAUGCAGGGGUCUAAAACUGAGCGGAUAACCUCUCUAUGG
RNA 2: GGGAAUGGAUCCACAUCUACGAAUUCGUACCAUAGAGAGGUUAUCCGCUCACGGAGAUCGGAAGAGCACACGU
B24: target 1 MT 5'PFS GUA 3'PFS CGU (mixed)
RNA 1: CACCCGUGCAAAAAUGCAGGGGUCUAAAACUGAGCGGAUAACCUCUCUAUGG
RNA 2: GGGAAUGGAUCCACAUCUACGAAUUCGUACCAUAGAGAGGUUAUCCGCUCACGUAGAUCGGAAGAGCACACGU
B25: target 1 MT 5'PFS UGU 3'PFS CGA (mixed)
RNA 1: CACCCGUGCAAAAAUGCAGGGGUCUAAAACUGAGCGGAUAACCUCUCUAUGG
RNA 2: GGGAAUGGAUCCACAUCUACGAAUUCUGUCCAUAGAGAGGUUAUCCGCUCACGAAGAUCGGAAGAGCACACGU
B26: target 1 MT 5'PFS UUG 3'PFS ACU (mixed)
RNA 1: CACCCGUGCAAAAAUGCAGGGGUCUAAAACUGAGCGGAUAACCUCUCUAUGG
RNA 2: GGGAAUGGAUCCACAUCUACGAAUUCUUGCCAUAGAGAGGUUAUCCGCUCAACUAGAUCGGAAGAGCACACGU
B27: target 1 MT 5'PFS GAC 3'PFS AGA (mixed)
RNA 1: CACCCGUGCAAAAAUGCAGGGGUCUAAAACUGAGCGGAUAACCUCUCUAUGG
RNA 2: GGGAAUGGAUCCACAUCUACGAAUUCGACCCAUAGAGAGGUUAUCCGCUCAAGAAGAUCGGAAGAGCACACGU

This data set has as its target T1, EsCas13d, nuclease-dead. Put plainly: crRNA (strand 1, pre-loaded); Mg2+; 40 mM Tris-HCl pH 7.5, 150 mM NaCl, 6 mM MgCl2, 1 mM DTT, 0.1% Tween-20, 0.2 mg/ml BSA; 25 C; 10 min per concentration, then washed. The following applies: tags: His6-TwinStrep-SUMO cleaved; N-terminal SNAP kept (SNAP-Surface 488); label: 3' end held by stalled T7 RNA polymerase.
The term Kd denotes the constant that tells how readily two partners part at equilibrium. A higher Kd goes with weaker binding. B1 returned a Kd of 17 ± 5 nM.
As for B2, the figure is 23.9 ± 3.25 nM.
As for B3, the figure is 17.8 ± 2.55 nM; as for B4, about 26 nM; as for B5, 15.5 ± 4.5 nM.
As for B6, the figure is about 85 nM; as for B7, 43 ± 15 nM.
With B8, binding was put at a Kd of 19 ± 5 nM.
As for B9, the figure is 45 ± 12 nM; as for B10, 35.5 ± 10.5 nM; as for B11, 11.2 ± 1.15 nM.
As for B12, the figure is 13.4 ± 1.8 nM; as for B13, 29.5 ± 10.5 nM; as for B14, about 65.5 nM.
As for B15, binding was characterised by a dissociation constant (Kd) of 16 ± 4 nM.
As for B16, the figure is about 15 nM; as for B17, 16.7 ± 1 nM.
B18 came in with a Kd of 24.5 ± 8.5 nM.
As for B19, the figure is 35.5 ± 8.5 nM; as for B20, 13.6 ± 2.6 nM; as for B21, 20.9 ± 3.75 nM.
For B22, the Kd was found to be 10.1 ± 0.7 nM.
As for B23, the figure is 15.2 ± 1.15 nM.
B24: binding was put at a Kd of 5.66 ± 0.48 nM.
Turning to B25, the Kd amounted to 60 ± 28.5 nM.
As for B26, the figure is 21 ± 5 nM.
As for B27, the figure is 28 ± 14 nM.

The record behind these values is article PMC10786891, “Massively parallel profiling of RNA-targeting CRISPR-Cas13d”.
